Source: patent publication US20140274782A1, “AFFINITY REAGENTS AND METHODS FOR DETECTION, PURIFICATION, AND PROTEOMIC ANALYSIS OF METHYLATED PROTEINS” (The Board of Trustees of the Leland Stanford Junior …, priority 2013, published 2014)

B1: 3×MBT: three MBT repeats of L3MBTL1 (amino acids 190-530 of accession NP—056293.4), expressed as GST or Flag fusion; methyl-lysine affinity reagent (protein)
chain: EEWSSSQPATGEKKECWSWESYLEEQKAITAPVSLFQDSQAVTHNKNGFKLGMKLEGIDPQHPSMYFILTVAEVCGYRLRLHFDGYSECHDFWVNANSPDIHPAGWFEKTGHKLQPPKGYKEEEFSWSQYLRSTRAQAAPKHLFVSQSHSPPPLGFQVGMKLEAVDRMNPSLVCVASVTDVVDSRFLVHFDNWDDTYDYWCDPSSPYIHPVGWCQKQGKPLTPPQDYPDPDNFCWEKYLEETGASAVPTWAFKVRPPHSFLVNMKLEAVDRRNPALIRVASVEDVEDHRIKIHFDGWSHGYDFWIDADHPDIHPAGWCSKTGHPLQPPLGPREPSSASPGG
modifications: left off: a dimerising Fc or GST
B2: CMAS: protein with methylated lysine identified in 3xMBT pull-down (protein, UniProt Q8NFW8 1-434, looked up)
N-acylneuraminate …: MDSVEKGAATSVSNPRGRPSRGRPPKLQRNSRGGQGRGVEKPPHLAALILARGGSKGIPLKNIKHLAGVPLIGWVLRAALDSGAFQSVWVSTDHDEIENVAKQFGAQVHRRSSEVSKDSSTSLDAIIEFLNYHNEVDIVGNIQATSPCLHPTDLQKVAEMIREEGYDSVFSVVRRHQFRWSEIQKGVREVTEPLNLNPAKRPRRQDWDGELYENGSFYFAKRHLIEMGYLQGGKMAYYEMRAEHSVDIDVDIDWPIAEQRVLRYGYFGKEKLKEIKLLVCNIDGCLTNGHIYVSGDQKEIISYDVKDAIGISLLKKSGIEVRLISERACSKQTLSSLKLDCKMEVSVSDKLAVVDEWRKEMGLCWKEVAYLGNEVSDEECLKRVGLSGAPADACSTAQKAVGYICKCNGGRGAIREFAEHICLLMEKVNNSCQK
B3: DDX1: protein with methylated lysine identified in 3xMBT pull-down (protein, UniProt Q92499 1-740, looked up)
ATP-dependent RNA helicase …: MAAFSEMGVMPEIAQAVEEMDWLLPTDIQAESIPLILGGGDVLMAAETGSGKTGAFSIPVIQIVYETLKDQQEGKKGKTTIKTGASVLNKWQMNPYDRGSAFAIGSDGLCCQSREVKEWHGCRATKGLMKGKHYYEVSCHDQGLCRVGWSTMQASLDLGTDKFGFGFGGTGKKSHNKQFDNYGEEFTMHDTIGCYLDIDKGHVKFSKNGKDLGLAFEIPPHMKNQALFPACVLKNAELKFNFGEEEFKFPPKDGFVALSKAPDGYIVKSQHSGNAQVTQTKFLPNAPKALIVEPSRELAEQTLNNIKQFKKYIDNPKLRELLIIGGVAARDQLSVLENGVDIVVGTPGRLDDLVSTGKLNLSQVRFLVLDEADGLLSQGYSDFINRMHNQIPQVTSDGKRLQVIVCSATLHSFDVKKLSEKIMHFPTWVDLKGEDSVPDTVHHVVVPVNPKTDRLWERLGKSHIRTDDVHAKDNTRPGANSPEMWSEAIKILKGEYAVRAIKEHKMDQAIIFCRTKIDCDNLEQYFIQQGGGPDKKGHQFSCVCLHGDRKPHERKQNLERFKKGDVRFLICTDVAARGIDIHGVPYVINVTLPDEKQNYVHRIGRVGRAERMGLAISLVATEKEKVWYHVCSSRGKGCYNTRLKEDGGCTIWYNEMQLLSEIEEHLNCTISQVEPDIKVPVDEFDGKVTYGQKRAAGGGSYKGHVDILAPTVQELAALEKEAQTSFLHLGYLPNQLFRTF
B4: eEF1A1: protein with methylated lysine identified in 3xMBT pull-down (protein, UniProt P68104 2-462, looked up)
Elongation factor 1-alpha 1: GKEKTHINIVVIGHVDSGKSTTTGHLIYKCGGIDKRTIEKFEKEAAEMGKGSFKYAWVLDKLKAERERGITIDISLWKFETSKYYVTIIDAPGHRDFIKNMITGTSQADCAVLIVAAGVGEFEAGISKNGQTREHALLAYTLGVKQLIVGVNKMDSTEPPYSQKRYEEIVKEVSTYIKKIGYNPDTVAFVPISGWNGDNMLEPSANMPWFKGWKVTRKDGNASGTTLLEALDCILPPTRPTDKPLRLPLQDVYKIGGIGTVPVGRVETGVLKPGMVVTFAPVNVTTEVKSVEMHHEALSEALPGDNVGFNVKNVSVKDVRRGNVAGDSKNDPPMEAAGFTAQVIILNHPGQISAGYAPVLDCHTAHIACKFAELKEKIDRRSGKKLEDGPKFLKSGDAAIVDMVPGKPMCVESFSDYPPLGRFAVRDMRQTVAVGVIKAVDKKAAGAGKVTKSAQKAQKAK
modifications: methylated lysine
notes: protein with methylated lysine identified in 3xMBT pull-down
B5: GTF2I: protein with methylated lysine identified in 3xMBT pull-down (protein, UniProt P78347 2-998, looked up)
General transcription factor …: AQVAMSTLPVEDEESSESRMVVTFLMSALESMCKELAKSKAEVACIAVYETDVFVVGTERGRAFVNTRKDFQKDFVKYCVEEEEKAAEMHKMKSTTQANRMSVDAVEIETLRKTVEDYFCFCYGKALGKSTVVPVPYEKMLRDQSAVVVQGLPEGVAFKHPENYDLATLKWILENKAGISFIIKRPFLEPKKHVGGRVMVTDADRSILSPGGSCGPIKVKTEPTEDSGISLEMAAVTVKEESEDPDYYQYNIQAGPSETDDVDEKQPLSKPLQGSHHSSEGNEGTEMEVPAEDSTQHVPSETSEDPEVEVTIEDDDYSPPSKRPKANELPQPPVPEPANAGKRKVREFNFEKWNARITDLRKQVEELFERKYAQAIKAKGPVTIPYPLFQSHVEDLYVEGLPEGIPFRRPSTYGIPRLERILLAKERIRFVIKKHELLNSTREDLQLDKPASGVKEEWYARITKLRKMVDQLFCKKFAEALGSTEAKAVPYQKFEAHPNDLYVEGLPENIPFRSPSWYGIPRLEKIIQVGNRIKFVIKRPELLTHSTTEVTQPRTNTPVKEDWNVRITKLRKQVEEIFNLKFAQALGLTEAVKVPYPVFESNPEFLYVEGLPEGIPFRSPTWFGIPRLERIVRGSNKIKFVVKKPELVISYLPPGMASKINTKALQSPKRPRSPGSNSKVPEIEVTVEGPNNNNPQTSAVRTPTQTNGSNVPFKPRGREFSFEAWNAKITDLKQKVENLFNEKCGEALGLKQAVKVPFALFESFPEDFYVEGLPEGVPFRRPSTFGIPRLEKILRNKAKIKFIIKKPEMFETAIKESTSSKSPPRKINSSPNVNTTASGVEDLNIIQVTIPDDDNERLSKVEKARQLREQVNDLFSRKFGEAIGMGFPVKVPYRKITINPGCVVVDGMPPGVSFKAPSYLEISSMRRILDSAEFIKFTVIRPFPGLVINNQLVDQSESEGPVIQESAEPSQLEVPATEEIKETDGSSQIKQEPDPTW
modifications: methylated lysine
notes: as for B4

Assays:
[1] = system: 3×MBT domain of L3MBTL1; assay: Triple SILAC pull-down, 3xMBT/3xMBTD355N ratio (cytoplasmic, nuclear and chromatin fractions of 293T cells); format: binding, human; conditions: for 3xMBT/D355N UNC Heavy / 3xMBT/D355N UNC Light: SILAC ratio, pull-down 3xMBT vs 3xMBTD355N; for 3xMBT/D355N UNC Heavy: experiment with UNC0638 in heavy SILAC media; for 3xMBT/D355N UNC Light: experiment with UNC0638 in light SILAC media;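 as to all read-outs here: proteins quantified with MaxQuant, requiring at least two unique peptides and quantification in both label directions, normalized to the mean of proteins from a digested loading control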
[2] = system: 3×MBT domain of L3MBTL1; assay: SILAC proteomic pull-down 3×MBT vs 3×MBTD355N from 293T nuclear extract, LC-MS/MS; format: binding, human; conditions: for Protein Ratio 3xMBT/D355N: SILAC ratio, 293T nuclear extract pull-down, * = protein identified in only one labeling experiment
Procedure: Protein pull-downs were performed as described above using 600 μg of nuclear extract prepared with isotopic labels as indicated. After eluting with glutathione, 3×MBT domain was removed by dialysis into high salt and rebinding to GSH-sepharose. Bound proteins were separated by SDS-PAGE and analyzed by in-gel tryptic digest followed by LC-MS/MS. Peptides were identified using MaxQuant version 1.2.2.5 (Cox and Mann (2008) Nat. Biotechnol. 26, 1367-1372) and candidate methylated peptides were verified by manual inspection.
For stable isotope labeling by amino acids in cell culture (SILAC) experiments HEK 293T cells were grown for at least six doublings in DMEM for SILAC supplemented with 10% dialyzed fetal bovine serum (FBS), 230 mg/L L-proline and either 100 mg/L each of L-lysine and L-arginine (“light” medium), D4-L-lysine and ^13C6-L-arginine (“medium” media), or ^13C6^15N2-L-lysine and ^13C6^15N4-L-arginine (Thermo Scientific). Heavy methyl labeling used DMEM without L-Methionine or L-Cysteine supplemented with D3^13C-L-Methionine (Sigma), L-Cysteine (Sigma) and 10% dialyzed FBS.
600 μg of nuclear extract was incubated overnight rotating at 4° C. with 20 μl packed 3×MBT or 3×MBTD355N beads in a total volume of 250 μL with binding buffer. Supernatant was removed and saved for use as a loading control. Beads were washed 4×5 minutes with 0.5 mL binding buffer. Protein was eluted by incubating in 20 μL elution buffer (10 mg/mL glutathione in 50 mM Tris pH 8.0) rotating at 4° C. for four hours. Elutions from 3×MBT and 3×MBTD355N were combined and dialyzed overnight at 4° C. against 10,000× volume of dissociation buffer (50 mM Tris pH 7.5, 750 mM NaCl) in a 0.1 mL Slide-A-Lyzer MINI Dialysis Device with 3.5K molecular weight cutoff (Thermo Scientific). 80 μL of GSH-Sepharose was prepared by washing briefly three times with 0.5 mL binding buffer. Dialyzed proteins were added to the GSH-Sepharose and incubated 4 hours rotating at 4° C. to deplete the GST-fusion domains. Supernatant was transferred to a fresh 1.5 mL tube. Proteins were separated by SDS-PAGE on a 10% polyacrylamide gel and stained using SilverQuest Silver Staining Kit (Life Technologies). Lanes were excised, residual 3×MBT band was removed, and gel was diced into 0.5 mm cubes. Gel pieces were destained and processed by in-gel digestion (Carlson et al. (2011) Science Signaling 4) with sequencing grade trypsin (Promega) and the peptide sample was dried completely in a vacuum centrifuge. To prepare a loading control, 2 μL each of light and heavy nuclear extract were combined, 6 μL of 8M urea was added, proteins were denatured by adding 2 μL of 100 mM dithiothreitol in digest buffer (50 mM ammonium bicarbonate) and heating to 60° C. for 1 hour, cysteine was alkylated by adding 2.2 μL 100 mg/mL iodoacetamide in digest buffer and incubating 1 hour at room temperature in darkness, and proteins were digested by adding 80 μL trypsin (Promega) at 12.5 ng/μL in digest buffer and incubating overnight at room temperature in darkness. Digestion was stopped by adding 10 μL of 10% formic acid.
Each experiment consisted of two sets of pull-downs: “forward” labeling with 3×MBT incubated with light nuclear extract and 3×MBTD355N with medium extract, and a second “reverse” labeling experiment with the label conditions swapped. Proteins were included in the results if they were quantified in both labeling directions. To determine reproducibility the entire experiment including the label swap was duplicated using independent protein preparations and a mass spectrometer at another institution.
For 3×MBT pull-down experiment #1 the gel lane was processed and peptides were loaded off-line onto a first dimension trap column (Waters Xbridge, C18, 10 μm particle size, 100 Å pore size, 5 cm packing length, 150 μm column i.d.). […]

| Molecule | number of proteins enriched by 3×MBT compared to 3×MBTD355N ([1]; two biological replicates) | amount of protein captured from nucleoplasmic extract ([2]; 293T cells, silver stain, relative to the other domain) | number of the 544 identified proteins enriched at 2-fold versus the other domain ([2]; SILAC) | percentage of the 544 identified proteins enriched at 2-fold versus the other domain ([2]; SILAC) [%] | 3xMBT/D355N UNC Heavy [1] [log base 2] | 3xMBT/D355N UNC Light [1] [log base 2] | Protein Ratio 3xMBT/D355N [2] |
| --- | --- | --- | --- | --- | --- | --- | --- |
| B1 | 370 | captured more proteins | 313 | 57.5 | – | – | – |
| B2 | – | – | – | – | 2.71 | 2.86 | 4.2 |
| B3 | – | – | – | – | 3.07 | 3.64 | 11.2 |
| B4 | – | – | – | – | 3.08 | 2.87 | 5.2 |
| B5 | – | – | – | – | 3.02 | 2.75 | 1.5 |
